Entries after “also recorded” stand apart in the source; their conditions may differ.
T1: GST-PSR-C1 (PKCl 100-185) / His-PKCl Δ223 interaction (Homo sapiens, UniProt P41743)
T1 sequence (P41743 233-596): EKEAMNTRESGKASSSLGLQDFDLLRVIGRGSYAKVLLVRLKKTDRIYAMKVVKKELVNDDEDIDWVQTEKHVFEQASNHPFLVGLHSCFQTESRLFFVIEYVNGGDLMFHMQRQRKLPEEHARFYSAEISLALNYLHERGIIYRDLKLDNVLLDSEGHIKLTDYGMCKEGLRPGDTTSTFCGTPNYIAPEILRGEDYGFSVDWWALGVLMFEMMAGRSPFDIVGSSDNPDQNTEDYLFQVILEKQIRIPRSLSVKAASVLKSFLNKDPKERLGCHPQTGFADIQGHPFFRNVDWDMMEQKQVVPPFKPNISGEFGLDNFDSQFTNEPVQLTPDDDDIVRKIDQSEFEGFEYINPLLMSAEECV

T2: GST-C1 (PKCl 131-186) / His-PKCl Δ223 interaction (Homo sapiens, UniProt P41743)
T2 sequence (P41743 233-596): T1 sequence (P41743 233-596)

T3: PSRtide (biotin-KSIYRRGSRRWRKLYRA)
T3 chain: KSIYRRGSRRWRKLYRA

B1: GST-PKCζ wild type (1-592) (protein)
chain: MPSRTGPKMEGSGGRVRLKAHYGGDIFITSVDAATTFEELCEEVRDMCRLHQQHPLTLKWVDSEGDPCTVSSQMELEEAFRLARQCRDEGLIIHVFPSTPEQPGLPCPGEDKSIYRRGARRWRKLYRANGHLFQAKRFNRRAYCGQCSERIWGLARQGYRCINCKLLVHKRCHGLVPLTCRKHMDSVMPSQEPPVDDKNEDADLPSEETDGIAYISSSRKHDSIKDDSEDLKPVIDGMDGIKISQGLGLQDFDLIRVIGRGSYAKVLLVRLKKNDQIYAMKVVKKELVHDDEDIDWVQTEKHVFEQASSNPFLVGLHSCFQTTSRLFLVIEYVNGGDLMFHMQRQRKLPEEHARFYAAEICIALNFLHERGIIYRDLKLDNVLLDADGHIKLTDYGMCKEGLGPGDTTSTFCGTPNYIAPEILRGEEYGFSVDWWALGVLMFEMMAGRSPFDIITDNPDMNTEDYLFQVILEKPIRIPRFLSVKASHVLKGFLNKDPKERLGCRPQTGFSDIKSHAFFRSIDWDLLEKKQALPPFQPQITDDYGLDNFDTQFTSEPVQLTPDDEDAIKRIDQSEFEGFEYINPLLLSTEESV

Key:
[1] = target: T1, GST-PSR-C1 (PKCl 100-185) / His-PKCl Δ223 interaction; assay: AlphaScreen interaction assay GST-PSR-C1 / His-PKCι Δ223; type: binding
Description: In FIG. 11 evidence is provided that the C1 domain directly interacts with the catalytic domain of PKCz. A novel assay is set-up to investigate the interaction between the C1 domain constructs fused to GST and the catalytic domain of atypical PKCs containing a 6×His-tag. The assay is based on the alphascreen technology using a donor bead coupled to anti-GST antibodies (to bind the GST-PSR-C1 or GST-C1 constructs derived from PKCl) and Ni-NTA acceptor beads that bind to His-PKCl Δ223 (catalytic domain). The interaction is measured by the emission of light from the acceptor beads that happens when the two beads are in close proximity. GST-PSR-C1 readily interacted with His-PKCl Δ223. […] PIFtide and HM polypeptides are known to interact with the PIF-pocket of AGC kinases. Thus, the assay provides evidence that polypeptides binding to the PIF-pocket displace the interaction. […]
(§1) The AlphaScreen assay was performed according to the manufacturer's general protocol (Perkin Elmer). […] Proteins and beads were incubated in the dark for 1 h 30 min at room temperature and the emission of light from the acceptor beads was measured in the EnVision reader (Perkin Elmer) and analyzed using the EnVision manager software.

[2] = target: T2, GST-C1 (PKCl 131-186) / His-PKCl Δ223 interaction; assay: AlphaScreen interaction assay GST-C1 / His-PKCι Δ223; type: binding
Description: In FIG. 11 evidence is provided that the C1 domain directly interacts with the catalytic domain of PKCz. A novel assay is set-up to investigate the interaction between the C1 domain constructs fused to GST and the catalytic domain of atypical PKCs containing a 6×His-tag. The assay is based on the alphascreen technology using a donor bead coupled to anti-GST antibodies (to bind the GST-PSR-C1 or GST-C1 constructs derived from PKCl) and Ni-NTA acceptor beads that bind to His-PKCl Δ223 (catalytic domain). The interaction is measured by the emission of light from the acceptor beads that happens when the two beads are in close proximity. GST-PSR-C1 readily interacted with His-PKCl Δ223. […] PIFtide and HM polypeptides are known to interact with the PIF-pocket of AGC kinases. Thus, the assay provides evidence that polypeptides binding to the PIF-pocket displace the interaction. In addition, small compounds that inhibit both atypical PKC isoforms and have been co-crystallized with PDK1-PKCz chimera (e.g. PS315), also displace the interaction between the C1 domain and the catalytic domain. Together, the data highlight the important role of the PIF-pocket in the regulation of PKCs and the need to develop tools to improve the methods for drug development to the PIF-pocket on AGC kinases. […] Indeed modeling of the pseudosubstrate into the substrate-binding site, allows the interaction of the C1 domain with the external part of the helix α-C that is a main component of the PIF-pocket (FIG. 13). The invention further provides a method for the screening for compounds that interact with the PIF-pocket on PKC isoforms, PDK1 chimeras or other AGC kinases, as well as kits for said method and compounds identified by said method (aspects (10) to (12) of the invention).
as §1

PDK1 = assay: Protein kinase activity assay, PDK1; type: biochemical, human; conditions: PDK1 wt / PDK1 50-359
Procedure: For the expression and purification of protein kinases fused to GST, pEBG-2T derived plasmids were transfected into 8×14.5 cm dishes containing HEK293 cells using the PEI method ([…] and […]/14.5 cm dish). The cells were lysed after 48 h in a buffer containing 50 mM Tris-HCl pH 7.5, 1 mM EGTA, 1 mM EDTA, 1% (w/v) Triton X-100, 1 mM sodium orthovanadate, […], 5 mM sodium pyrophosphate, 0.27 M sucrose, 0.1% β-mercaptoethanol, and 1 tablet of protease inhibitor cocktail per 50 ml of buffer. Lysates were frozen in liquid nitrogen and kept at −80° C. until required. Purification involved incubation of the cleared lysate with glutathione sepharose, followed by 2 washes with 0.5 M NaCl in lysis buffer, 8 washes with a buffer containing 50 mM Tris-HCl, 0.1 mM EGTA and 0.1% β-mercaptoethanol (buffer A), and a last wash with buffer A supplemented with 0.26 M sucrose. Elution was performed with this last buffer containing 20 mM glutathione and the GST-fusion protein was cleared from resin by filtration through a “SigmaPrep” spin column (Sigma). GST-fusion proteins were aliquoted, snap frozen in liquid nitrogen and kept at −80° C. until use. Purity at this stage was above 85% as estimated by SDS-PAGE and staining with Coomassie Brilliant Blue R250. PRK2 was expressed from pEBG-2T-PRK2 (Balendran, A. et al. J Biol Chem 275, 20806-13. (2000)), SGK1 from pEBG-2T-SGK1-ΔN[Ser422Asp], PKBα from pEBG-2T-PKBα[Ser473Asp] (Biondi et al., D. R. Embo J 20, 4380-90. (2001)), PKCl from pEBG-2T-PKCl and PKCζ from pEBG-2T-PKCζ. PDK1 and S6K1 were expressed in Sf9 insect cells using a baculovirus expression system from pFastBac-PDK1 and pFastBac-56K1-T2[Thr412Glu].
The protein kinase activity assays were performed essentially as previously described (Engel, M. et al. Embo J 25, 5469-80 (2006)). The assays were done in a 96-well format and 4 μl aliquots spotted on P81 phospho-cellulose papers (Whatman) using epMotion 5070 (Eppendorf), washed in 0.01% phosphoric acid, dried, and then exposed and analyzed using PhosphoImager technology (FLA-9000 Starion, Fujifilm). Atypical PKC (aPKC) activity assays were performed in a total volume of 20 μl containing 50 mM Tris-HCl pH 7.5, 0.05 mg/ml BSA, 0.1% (v/v) 2-mercaptoethanol, 10 mM MgCl2, 100 μM [γ^32P]ATP (5-50 cpm/pmol), 0.003% Brij, 30-50 ng of aPKC, and MBP (10 μM) or PSRtide (100 μM) as the substrate. After 15 min pre-incubation, the kinase reaction was started by addition of 6 μl of an ATP-Mg mix. When required, lipid activator (LA) phosphatidylserine (100 ng) or PKC lipid activator mix (1×) was included in the pre-incubation. Low basal activity and consistent activation of 1-592 PKCζ and 498 PKCζ by LA was obtained when the pre-incubation time was started by addition of the whole mix on the enzyme.
The substrates were T308tide (200 μM) for PDK1, Kemptide (100 μM) for PKA, and Crosstide (100 μM) for SGK, PKB, S6K, and PRK2. The activity assays for PKCα, β, θ, and δ were performed in the presence of PKC lipid activator mix (1×) using 3 μM of histone H1 as substrate.
The activity assays were performed in duplicates or triplicates (in the case of the temperature stability assay) with less than 10% difference between the duplicate pairs. The activity assays shown were repeated at least twice with similar results. Moreover, most of the assays shown were repeated multiple times with enzymes from independent purifications with similar results. Representative experiments are shown. […]

[3] = target: T3, PSRtide (biotin-KSIYRRGSRRWRKLYRA)

| Molecule | Effect on interaction of GST-PSR-C1 with His-PKCι Δ223 [1] | Effect on interaction of GST-C1 with His-PKCι Δ223 [2] | Effect on PDK1 activity (PDK1) | specific activity (phosphorylation of PSRtide by full length PKCζ) [3] [nmol/mg/min] |
| --- | --- | --- | --- | --- |
| VGNQLPFIGFT(P)YFRENL (VGNQLPFIGFTYFRENL) [ROCK-pHM, ROCK HM peptide phosphorylated at the HM phosphorylation site] | not and not able to displace | not and not able to displace | – | – |
| RTWALCGTPEYLAPEIILKK (activation loop of PKA) | – | not | – | – |
| VGNQLPFIGFTYFRENL (ROCK-HM) | displaced; also recorded: strongly diminished | displaced; also recorded: strongly diminished | – | – |
| O=C(O)CC(Cc1nc2cc(Cl)ccc2[nH]1)c1ccc(Cl)cc1 (stereo not shown) [PS114] | – | – | Activation | – |
| B1 | – | – | – | 60 to 80 |

— patent publication US20140017701A1, “CHIMERIC PDK1 KINASES” (priority 2011, published 2014)
